Source: PMC7504508
Like-named read-outs stand apart in the source and are kept apart here.

Legend:
[1] = biological target: GST-Sumo fusion protein of the perch Connexin 35 C-terminal domain (amino acids 251-304), wild type (perch)
[2] = biological target: GST-Sumo fusion protein of the perch Connexin 35 C-terminal domain (amino acids 251-304), wild type (perch); assay: SPR; GST-Sumo-Cx35 fusion proteins captured by immobilised anti-GST antibodies on a CM5 chip (Biacore 2000); calmodulin as analyte, 3 nM to 30 µM; GST-Sumo reference flowcell subtracted; 1 mM free Ca2+, 0.5 mM free Mg2+, 140 mM KCl, 10 mM MOPS pH 7.2, 0.05% Tween 20; first order ligand binding …
[3] = biological target: GST-Sumo fusion protein of the perch Cx35 C-terminal domain (251-304) V267A (perch); assay: as above
[4] = biological target: GST-Sumo fusion protein of the perch Cx35 C-terminal domain (251-304) V270A, Q271A (perch); assay: as above
[5] = biological target: GST-Sumo fusion protein of the perch Cx35 C-terminal domain (251-304) R268A (perch); assay: as above
[6] = biological target: GST-Sumo fusion protein of the perch Cx35 C-terminal domain (251-304) I277A (perch); assay: as above
[7] = biological target: GST-Sumo fusion protein of the perch Connexin 35 C-terminal domain (amino acids 251-304), wild type (perch); assay: as above; remark: listed apart in the source

reduction of Neurobiotin tracer coupling by 5 µM ionomycin in transiently transfected HeLa cells (full-length untagged Cx35 wild type in the cells) [1]: 67% | Kd [2]: 1380 nM | Kd [3]: 5390 nM | Kd [4]: 1190 nM | Kd [5]: 2460 nM | Kd [6]: 1260 nM | Kd [7]: 1430 nM
Substance: calmodulin (from UniProt P0DP23 1-149) (natural protein)
